Experimental findings from PMC6739210 are described below.

Test [1] concerns the target Mortalin/GRP-75/mt-hsp70 (human (endogenous in MCF-7, MDA-MB-231 and K562)) (UniProt P38646).
For test [2] the target is unchanged. The source holds these as a separate data set.

Sequence of UniProt P38646 (P38646 47-679): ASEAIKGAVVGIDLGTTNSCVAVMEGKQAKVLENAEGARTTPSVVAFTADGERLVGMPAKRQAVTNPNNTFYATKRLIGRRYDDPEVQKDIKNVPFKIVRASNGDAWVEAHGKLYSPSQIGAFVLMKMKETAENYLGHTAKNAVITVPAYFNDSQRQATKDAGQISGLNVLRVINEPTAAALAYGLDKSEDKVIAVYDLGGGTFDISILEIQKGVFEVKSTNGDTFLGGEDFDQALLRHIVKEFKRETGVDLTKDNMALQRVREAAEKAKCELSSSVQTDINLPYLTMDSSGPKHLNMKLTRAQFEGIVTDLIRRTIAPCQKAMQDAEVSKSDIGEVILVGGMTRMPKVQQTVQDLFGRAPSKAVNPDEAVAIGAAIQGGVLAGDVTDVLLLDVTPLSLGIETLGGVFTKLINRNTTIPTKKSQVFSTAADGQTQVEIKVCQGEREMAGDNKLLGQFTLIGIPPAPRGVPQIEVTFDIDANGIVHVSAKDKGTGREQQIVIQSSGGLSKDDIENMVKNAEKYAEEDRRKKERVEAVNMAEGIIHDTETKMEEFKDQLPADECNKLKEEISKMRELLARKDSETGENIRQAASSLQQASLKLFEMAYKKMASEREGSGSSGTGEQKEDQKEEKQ

As to SMRwt-CPP peptide, in test [1], the complement C9 level in extracellular vesicles of K562 cells after peptide and NHS, Western blot, compared to the NHS-treated controls came out at 24.3%; the complement C9 level in extracellular vesicles of MCF-7 cells after peptide and NHS, Western blot, compared to the NHS-treated controls turned out to be 37.5%; the complement C9 level in extracellular vesicles of MDA-MB-231 cells after peptide and NHS, Western blot, compared to the NHS-treated controls stood at 56.3%; the mortalin level in extracellular vesicles of K562 cells after peptide and NHS, Western blot, compared to the NHS-treated controls came to 34.4%. In test [1], this substance returned a mortalin level in extracellular vesicles of MCF-7 cells after peptide and NHS, Western blot, compared to the NHS-treated controls of 48.4%; a mortalin level in extracellular vesicles of MDA-MB-231 cells after peptide and NHS, Western blot, compared to the NHS-treated controls of 27.5%. In addition, in test [2], the complement-mediated cytotoxicity (trypan blue), percent cell death of K562 cells treated with 1120 nM peptide, anti-CXCR4 antibody, minus or plus normal human serum was 23%; the complement-mediated cytotoxicity (trypan blue), percent cell death of MCF-7 cells treated with 300 nM peptide, anti-CXCR4 antibody, minus or plus normal human serum came to 29%; the complement-mediated cytotoxicity (trypan blue), percent cell death of MDA-MB-231 cells treated with 540 nM peptide, anti-CXCR4 antibody, minus or plus normal human serum turned out to be 9%.
